Experimental data as given in paper PMC9071374, “Identification of a WRKY transcriptional activator from Camellia sinensis that regulates methylated EGCG biosynthesis”.

Biological target: CsWRKY57like (WRKY domain) (Camellia sinensis, UniProt A0A4S4EXI7 145-222)
Experiment: EMSA; excess unlabeled probe abolishes binding; Biotin-labeled probes, 6% native PAGE; buffer, salt, pH and temperature not stated (cited refs 48, 49)
Conditions: protein: recombinant; tags: GST (pGEX-4T); label: biotin

Chain of CsWRKY57like (WRKY domain) (A0A4S4EXI7 entry or part of it): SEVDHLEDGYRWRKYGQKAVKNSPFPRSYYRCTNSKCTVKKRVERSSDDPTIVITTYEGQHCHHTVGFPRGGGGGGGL

B1: CsDFR promoter W-box probe (dsDNA)
DNA 1: GCCCAAGCTCATATAGTCAAAAAAGTCAAAAAGCCAAAAAGTCAACCCACTTCCC
DNA 2: GGGAAGTGGGTTGACTTTTTGGCTTTTTGACTTTTTTGACTATATGAGCTTGGGC
  binding result: binds

B2: CCoAOMT promoter W-box probe (dsDNA)
DNA 1: TTTACTTAAAATATGGATTTTGACTTGTGATATAAAAAATTATAAATATTTT
DNA 2: AAAATATTTATAATTTTTTATATCACAAGTCAAAATCCATATTTTAAGTAAA
  binding result: binds
